Biological target: human LDL (Low Density Lipoprotein) receptor (human) (UniProt P01130)
Assay: competition by flow cytometry on A549 cells: unlabelled LDLs (varied, 16-fold excess) reduce the binding of 12G4 (30 µg/mL) to LDL-R

human LDL (Low Density Lipoprotein) receptor (human), sequence (P01130 22-860): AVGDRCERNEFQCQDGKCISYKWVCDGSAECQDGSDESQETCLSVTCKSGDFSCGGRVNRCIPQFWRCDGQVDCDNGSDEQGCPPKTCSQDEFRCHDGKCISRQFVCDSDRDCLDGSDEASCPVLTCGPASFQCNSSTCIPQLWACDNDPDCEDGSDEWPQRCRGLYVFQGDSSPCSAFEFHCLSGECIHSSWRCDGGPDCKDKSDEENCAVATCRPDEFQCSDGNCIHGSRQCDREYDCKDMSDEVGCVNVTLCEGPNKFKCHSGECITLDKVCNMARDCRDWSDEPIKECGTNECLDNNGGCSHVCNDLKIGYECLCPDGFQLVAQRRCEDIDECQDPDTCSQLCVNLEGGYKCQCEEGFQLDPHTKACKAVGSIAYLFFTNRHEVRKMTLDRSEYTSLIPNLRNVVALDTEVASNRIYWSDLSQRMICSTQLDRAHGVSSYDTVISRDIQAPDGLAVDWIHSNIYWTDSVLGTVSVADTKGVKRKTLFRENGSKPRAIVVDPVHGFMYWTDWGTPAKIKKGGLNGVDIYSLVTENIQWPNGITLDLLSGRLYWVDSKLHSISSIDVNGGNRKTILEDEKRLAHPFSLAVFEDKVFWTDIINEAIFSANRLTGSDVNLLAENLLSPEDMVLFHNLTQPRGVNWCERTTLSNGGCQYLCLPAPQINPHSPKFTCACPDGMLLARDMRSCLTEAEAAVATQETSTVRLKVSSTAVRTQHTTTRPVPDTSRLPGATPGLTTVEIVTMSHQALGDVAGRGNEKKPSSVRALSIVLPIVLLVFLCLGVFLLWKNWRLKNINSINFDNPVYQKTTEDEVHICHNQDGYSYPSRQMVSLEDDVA

Substance: LDLs (Low Density Lipoproteins) (from UniProt P04114 28-4563) (ligand)
- reduction in the bond: 60%

From patent US20090175789A1
